Data published in publication PMC3708727 (Molecular Biology of the Cell, 2013).

T1: histidine (His)-tagged full-length dAbp1 (Dictyostelium discoideum, UniProt Q557J6 1-481)
T1 sequence (looked up): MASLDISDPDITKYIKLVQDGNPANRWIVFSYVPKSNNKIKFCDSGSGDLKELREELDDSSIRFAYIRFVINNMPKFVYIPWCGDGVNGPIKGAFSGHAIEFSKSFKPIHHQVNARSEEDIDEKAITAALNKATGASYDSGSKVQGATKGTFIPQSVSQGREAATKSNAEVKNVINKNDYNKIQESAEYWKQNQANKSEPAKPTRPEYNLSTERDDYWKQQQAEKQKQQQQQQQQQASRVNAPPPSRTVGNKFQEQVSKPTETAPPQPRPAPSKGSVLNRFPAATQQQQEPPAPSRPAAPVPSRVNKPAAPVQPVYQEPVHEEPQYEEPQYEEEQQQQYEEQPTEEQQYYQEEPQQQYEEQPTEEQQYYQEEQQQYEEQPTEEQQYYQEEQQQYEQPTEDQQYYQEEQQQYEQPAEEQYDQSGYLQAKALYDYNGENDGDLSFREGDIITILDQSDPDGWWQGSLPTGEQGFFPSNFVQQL

T2: His-tagged dAbp1-237-313 fragment (Dictyostelium discoideum, UniProt Q557J6 237-313)
T2 sequence (looked up): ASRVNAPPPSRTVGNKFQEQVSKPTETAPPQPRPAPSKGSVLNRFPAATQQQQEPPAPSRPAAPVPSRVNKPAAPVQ


Assays:
[1] = molecular target: T1, histidine (His)-tagged full-length dAbp1; assay: pull-down
[2] = molecular target: T2, His-tagged dAbp1-237-313 fragment; assay: pull-down
[3] = molecular target: rabbit muscle actin filaments (rabbit, UniProt P68135 1-377); assay: co-sedimentation

| binding result [1] | binding result [2] | Kd in the presence of an equimolar amount of GST-PakB-1-120 [3] | Binder |
| --- | --- | --- | --- |
| binds | binds | – | GST-dAbp1-SH3 domain fusion protein (domain or fragment, Dictyostelium discoideum, UniProt Q557J6 426-481, looked up) QAKALYDYNGENDGDLSFREGDIITILDQSDPDGWWQGSLPTGEQGFFPSNFVQQL |
| – | – | 1100 ± 400 nM | GST-dAbp1 (natural protein) MASLDISDPDITKYIKLVQDGNPANRWIVFSYVPKSNNKIKFCDSGSGDLKELREELDDSSIRFAYIRFVINNMPKFVYIPWCGDGVNGPIKGAFSGHAIEFSKSFKPIHHQVNARSEEDIDEKAITAALNKATGASYDSGSKVQGATKGTFIPQSVSQGREAATKSNAEVKNVINKNDYNKIQESAEYWKQNQANKSEPAKPTRPEYNLSTERDDYWKQQQAEKQKQQQQQQQQQASRVNAPPPSRTVGNKFQEQVSKPTETAPPQPRPAPSKGSVLNRFPAATQQQQEPPAPSRPAAPVPSRVNKPAAPVQPVYQEPVHEEPQYEEPQYEEEQQQQYEEQPTEEQQYYQEEPQQQYEEQPTEEQQYYQEEQQQYEEQPTEEQQYYQEEQQQYEQPTEDQQYYQEEQQQYEQPAEEQYDQSGYLQAKALYDYNGENDGDLSFREGDIITILDQSDPDGWWQGSLPTGEQGFFPSNFVQQL |
